These are literature values, as cited in PMC3508151.

Where two headings read alike, the source gives them in different places.

The target in data set [1] is IL-13Rα1 (Homo sapiens) (UniProt P78552). Particulars: cited from earlier work.
The target is the same in data set [2]. Particulars: cited from earlier work. The source holds these as a separate data set.

Sequence of IL-13Rα1 (Homo sapiens) (P78552 22-343): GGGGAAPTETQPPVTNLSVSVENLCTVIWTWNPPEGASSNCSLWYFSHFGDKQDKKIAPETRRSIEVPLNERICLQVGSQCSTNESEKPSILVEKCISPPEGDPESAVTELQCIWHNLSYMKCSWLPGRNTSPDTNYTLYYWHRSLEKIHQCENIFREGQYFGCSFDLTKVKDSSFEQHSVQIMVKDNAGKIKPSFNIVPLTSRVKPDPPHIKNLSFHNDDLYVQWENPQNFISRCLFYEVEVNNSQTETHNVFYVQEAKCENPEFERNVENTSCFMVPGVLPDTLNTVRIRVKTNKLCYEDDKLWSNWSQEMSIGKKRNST
Sequence of IL-4 (P05112 25-153): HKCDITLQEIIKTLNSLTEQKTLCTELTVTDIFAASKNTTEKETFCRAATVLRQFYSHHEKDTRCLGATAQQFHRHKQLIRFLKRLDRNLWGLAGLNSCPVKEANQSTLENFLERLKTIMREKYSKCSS
Sequence of IL-13 (P35225 25-146): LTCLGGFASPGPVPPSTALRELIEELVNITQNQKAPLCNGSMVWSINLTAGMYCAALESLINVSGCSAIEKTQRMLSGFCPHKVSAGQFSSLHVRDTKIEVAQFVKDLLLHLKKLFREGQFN

For IL-13, the Kd in the data set with IL-13Rα1 (Homo sapiens) [1] is 30 nM.
Take IL-4 (from UniProt P05112): the Kd in the data set with IL-13Rα1 (Homo sapiens) [2] is over 1000 nM.
